The text below walks through data of PMC9376891 (Nature Communications, 2022).

One may read the Kd as the concentration at which binding is half-saturated. A low value points to higher affinity. The stoichiometry N is a count of units in the complex or per binding partner.

B1: Rae1(31-368)-Nup98(157-213) heterodimer (complex)
chain 1: DIEVTSSPDDSIGCLSFSPPTLPGNFLIAGSWANDVRCWEVQDSGQTIPKAQQMHTGPVLDVCWSDDGSKVFTASCDKTAKMWDLSSNQAIQIAQHDAPVKTIHWIKAPNYSCVMTGSWDKTLKFWDTRSSNPMMVLQLPERCYCADVIYPMAVVATAERGLIVYQLENQPSEFRRIESPLKHQHRCVAIFKDKQNKPTGFALGSIEGRVAIHYINPPNPAKDNFTFKCHRSNGTNTSAPQDIYAVNGIAFHPVHGTLATVGSDGRFSFWDKDARTKLKTSEQLDQPISACCFNHNGNIFAYASSYDWSKGHEFYNPQKKNYIFLRNAAEELKPRNKK
chain 2: not shown
notes: also called Rae1-Nup98; Rae1-Nup98 complex

T2 sequence (P52948 157-213): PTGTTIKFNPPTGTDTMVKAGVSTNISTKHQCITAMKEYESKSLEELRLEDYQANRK

The target of the first assay is B1. Kind of assay: ITC. The conditions noted are these: both partners purified.
Target sequence in this assay (P52948 157-213, chain 2 of 2, one chain of several): as the sequence (P52948 157-213) above
As to ENKYSQLDEEQPMEID (source: synthetic peptide) [SARS-CoV-2 ORF6 C2], the Ka amounted to 3.58e+06 M⁻¹, binding was characterised by a dissociation constant (Kd) of 270 nM and the “stoichiometry N” value was 1.17.

Take DEEQPMEID (source: synthetic peptide) [SARS-CoV-2 ORF6 C4]: the Ka was 2.25e+06 M⁻¹, the Kd was found to be 440 nM and the “stoichiometry N” value stood at 0.82.

As for SLTENKYSQLDEEQPMEID (source: synthetic peptide) [SARS-CoV-2 ORF6 C1], the Ka was 2.62e+06 M⁻¹, binding was put at a Kd of 380 nM and the “stoichiometry N” value was 1.06.

As for YSQLDEEQPMEID (source: synthetic peptide) [SARS-CoV-2 ORF6 C3], the Ka was found to be 4.12e+06 M⁻¹ and the “stoichiometry N” value amounted to 0.9.

In another assay the target is T1, Rae1(31-368)-Nup98(157-213) heterodimer (human, UniProt P78406 31-368; P52948 157-213).
T1 construct: also called Rae1-Nup98; Rae1-Nup98 complex
Kind of assay: ITC. The note with it: both partners purified.
T1 sequence (P52948 157-213, chain 2 of 2, one chain of several): as the sequence (P52948 157-213) above
Molecule YSQLDEEQPM (source: synthetic peptide) [SARS-CoV-2 ORF6 C3 lacking the last three residues 59-EID-61 but retaining M58] displayed a Kd of 87700 nM.

YSQLDEEQPMEID (source: synthetic peptide) [SARS-CoV-2 ORF6 C3 peptide] had a Kd of 240 nM.

The molecule YSELDDEEPMELD [SARS-CoV ORF6 C3 -YP] had a Kd of 110 nM.

Take RAITDGGESPMEWQTL [MHV-68 ORF10 CTT peptide]: the Kd worked out at 5710 nM.

On to YSELDDEEPMELDYP [SARS-CoV ORF6 C3 peptide], for which binding was characterised by a dissociation constant (Kd) of 370 nM.

The next assay concerns the target T2, MHV68-ORF10-CTT (murine gammaherpesvirus 68).
T2 construct: source: synthetic peptide
Kind of assay: ITC. The conditions noted are these: both partners purified.
On to B1, for which the Ka was 175000 M⁻¹.

A further assay has as its target B1. Kind of assay: ITC. The note with it: both partners purified. The source holds these as a separate data set.
Target sequence in this assay (P52948 157-213, chain 2 of 2, one chain of several): as the sequence (P52948 157-213) above
For the molecule YSELDDEEPMELDYP [SARS-CoV ORF6 C3], the Ka is 2.69e+06 M⁻¹ and the “stoichiometry N” value was found to be 0.63.

For YSELDDEEPMELD [SARS-CoV ORF6-YP], the Ka came to 8.89e+06 M⁻¹ and the “stoichiometry N” value was found to be 0.62.

Take DEMDTHDPNQLRY [VSV-M-NTE]: the Ka was 8550 M⁻¹ and the “stoichiometry N” value stood at 0.304.

Turning to YSQLDEEQPM (source: synthetic peptide) [SARS-CoV-2- ORF6-EID], the Ka turned out to be 11400 M⁻¹ and the “stoichiometry N” value is 1.01.
